Experimental data from publication PMC4666394, “Human HLTF mediates postreplication repair by its HIRAN domain-dependent replication fork remodelling”.
Changes are numbered by the printed parent chain.

Experiments:
HLTF HIRAN domain WT [1] = target: T1, HLTF HIRAN domain WT (human, UniProt Q14527 56-168); experiment: EMSA; Competition: 20 mM HEPES pH 7.5, 150 mM NaCl, 1 mM DTT, 0.1 ug/mL BSA, 0.2% NP40, 10% glycerol, room temperature 15 min; 6% native PAGE 0.5x Tris-borate without EDTA at 4 C; direct gel shift as in cited earlier work; details: protein: recombinant, tags: FLAG (GST-FLAG cleaved by PreScission) or GST-FLAG, label: 5' 32P
T1 sequence: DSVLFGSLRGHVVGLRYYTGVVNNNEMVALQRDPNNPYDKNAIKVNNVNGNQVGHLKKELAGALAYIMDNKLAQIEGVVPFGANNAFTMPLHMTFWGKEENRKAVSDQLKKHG

[2] = target: T2, HLTF HIRAN domain NN90,91AA (human, UniProt Q14527 56-168, N90A;N91A); experiment: as above; details: protein: recombinant, tags: FLAG or GST-FLAG, label: 5' 32P
T2 sequence: T1 sequence with N35A, N36A

HLTF HIRAN domain WT [3] = target: T1, HLTF HIRAN domain WT; experiment: EMSA; high affinity; Competition: 20 mM HEPES pH 7.5, 150 mM NaCl, 1 mM DTT, 0.1 ug/mL BSA, 0.2% NP40, 10% glycerol, room temperature 15 min; 6% native PAGE 0.5x Tris-borate without EDTA at 4 C; direct gel shift as in cited earlier work; details: protein: recombinant; tags: FLAG (GST-FLAG cleaved by PreScission) or GST-FLAG; label: 5' 32P; fork 1:4 2:3 3:4; two 30 bp daughter arms, 45 bp parental duplex, no ss region
GST-FLAG-HIRAN (WT) = target: T3, GST-FLAG-HIRAN (WT) (human, UniProt Q14527 56-168); experiment: competition; 0-1 uM competitor against Cy5 fork; competes better than ssDNA; Competition: 20 mM HEPES pH 7.5, 150 mM NaCl, 1 mM DTT, 0.1 ug/mL BSA, 0.2% NP40, 10% glycerol, room temperature 15 min; 6% native PAGE 0.5x Tris-borate without EDTA at 4 C; direct gel shift as in cited earlier work; details: protein: recombinant; tags: GST-FLAG; label: 5' fluorescein on strand 4 (O3063); fork 1:4 2:3 3:4; two 30 bp daughter arms, 45 bp parental duplex, no ss region
T3 sequence: T1 sequence

[4] = 30 bp duplex, 5' overhang 45 nt on strand 2

B1: ds75-mer O1058/O1118 (dsDNA)
DNA 1: AGCTACCATGCCTGCCTCAAGAATTCGTAATATGCCTACACTGGAGTACCGGAGCATCGTCGTGACTGGGAAAAC
DNA 2: GTTTTCCCAGTCACGACGATGCTCCGGTACTCCAGTGTAGGCATATTACGAATTCTTGAGGCAGGCATGGTAGCT
Q: Does B1 bind (HLTF HIRAN domain WT [1]; blunt)?
A: Result: no binding

Q: Does B1 bind ([2]; blunt)?
A: Result: no binding

B2: partial duplex O1054/O1118 (mixed)
DNA 1: AGCTACCATGCCTGCCTCAAGAATTCGTAA
DNA 2: B1 DNA 2
Q: Does B2 bind (HLTF HIRAN domain WT [1]; [4])?
A: Result: binds

Q: Does B2 bind [2, 4]?
A: Result: no binding

B3: replication fork O1054/O1056/O1058/O1118 (structured_DNA)
DNA 1: B2 DNA 1
DNA 2: TTACGAATTCTTGAGGCAGGCATGGTAGCT
DNA 3: B1 DNA 1
DNA 4: B1 DNA 2
Q: Does B3 bind ([2]; fork 1:4 2:3 3:4, two 30 bp daughter arms, 45 bp parental duplex, no ss region)?
A: Result: no binding

Q: Does B3 bind (HLTF HIRAN domain WT [3])?
A: Result: binds

B4: replication fork O1054/O1056/O1058/O3063 (structured_DNA)
DNA 1: B2 DNA 1
DNA 2: B3 DNA 2
DNA 3: B1 DNA 1
DNA 4: B1 DNA 2
Q: Does B4 bind (GST-FLAG-HIRAN (WT))?
A: Result: binds
